The record followed here is publication PMC9534960, “De Novo Design of an Androgen Receptor DNA Binding Domain‐Targeted peptide PROTAC for Prostate Cancer Therapy” (Advanced Science, 2022).

Broadly, the EC50 is the concentration needed to bring the measured effect to its halfway point. Read a high EC50 as a less potent agent. What is called Kd is a measure of binding affinity in units of concentration.

What all share (settings): both partners purified
Assay [1] deals with T1, AR DBD domain protein, labeled with rhodamine B (rhodamine B label).
T1 chain: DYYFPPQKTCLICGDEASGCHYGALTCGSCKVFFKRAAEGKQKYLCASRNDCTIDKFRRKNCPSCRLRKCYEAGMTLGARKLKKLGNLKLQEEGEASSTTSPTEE
The experiment in a line: fluorescence polarisation; rhodamine B labeled AR DBD, 200 nM of AR DBD dimer in complex with DNA, rising AR pep‐PROTAC concentration; maximum FP taken as 100% dimer, minimum as monomer. A general note: Fluorescence polarisation rises when a labelled molecule tumbles more slowly, as on binding a larger partner.

The target of assay [2] is T2, MDM2, recombinant from E. coli (UniProt Q00987 1-491).
T2 construct: E3 ligase MDM2; Plasmid bought from GenScript; also called E3 ligase MDM2; pET‐28a (MDM2)
T2 sequence (Q00987 whole entry): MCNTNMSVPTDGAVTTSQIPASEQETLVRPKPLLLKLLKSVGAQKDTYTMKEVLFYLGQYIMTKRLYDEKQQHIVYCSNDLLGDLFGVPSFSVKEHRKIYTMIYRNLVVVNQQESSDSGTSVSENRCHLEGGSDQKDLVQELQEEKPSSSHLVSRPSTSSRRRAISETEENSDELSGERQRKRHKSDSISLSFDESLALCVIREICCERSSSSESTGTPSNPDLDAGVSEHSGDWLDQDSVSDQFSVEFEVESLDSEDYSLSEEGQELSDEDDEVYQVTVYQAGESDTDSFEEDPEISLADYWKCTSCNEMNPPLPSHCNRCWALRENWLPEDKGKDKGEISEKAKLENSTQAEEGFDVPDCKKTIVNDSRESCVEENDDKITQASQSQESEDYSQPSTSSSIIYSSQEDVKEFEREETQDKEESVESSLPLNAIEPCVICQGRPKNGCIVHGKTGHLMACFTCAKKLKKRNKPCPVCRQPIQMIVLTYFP
The experiment in a line: ITC; protein (around 20 µM, 0.2 ml) in the sample cell, peptide (around 200 µM) in the syringe; 25 °C; first injection 0.4 µl, then 19 injections of 2 µl. (Isothermal titration calorimetry measures the heat released or taken up as one component is titrated into another.)

A further assay addresses T3, MDMX (UniProt O15151 1-490).
T3 construct: MDMX; MDMX is not in the methods' list of proteins made in E. coli
T3 sequence (looked up): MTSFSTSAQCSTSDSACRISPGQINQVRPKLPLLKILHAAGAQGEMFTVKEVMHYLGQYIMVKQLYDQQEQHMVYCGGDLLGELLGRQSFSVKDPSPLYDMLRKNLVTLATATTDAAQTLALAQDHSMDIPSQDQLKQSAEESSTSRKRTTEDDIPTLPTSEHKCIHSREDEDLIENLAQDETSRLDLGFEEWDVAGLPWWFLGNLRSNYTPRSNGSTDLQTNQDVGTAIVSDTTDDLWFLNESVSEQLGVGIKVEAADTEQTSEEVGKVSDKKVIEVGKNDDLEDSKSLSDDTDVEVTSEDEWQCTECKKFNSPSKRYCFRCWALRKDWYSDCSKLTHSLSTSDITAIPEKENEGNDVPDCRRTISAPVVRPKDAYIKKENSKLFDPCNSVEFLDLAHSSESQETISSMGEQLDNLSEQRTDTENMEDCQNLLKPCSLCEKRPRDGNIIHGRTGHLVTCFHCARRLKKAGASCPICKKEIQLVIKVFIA
Described as above.

For assay [3], the target named is T4, Androgen receptor splice variant‐7 (AR‐V7), recombinant from E. coli (UniProt P10275-3 1-644).
T4 construct: Plasmid bought from GenScript; also called pET‐28a (AR – V7); pET28‐AR‐V7; not shown: His tag (from the vector pET‐28a)
T4 sequence (looked up): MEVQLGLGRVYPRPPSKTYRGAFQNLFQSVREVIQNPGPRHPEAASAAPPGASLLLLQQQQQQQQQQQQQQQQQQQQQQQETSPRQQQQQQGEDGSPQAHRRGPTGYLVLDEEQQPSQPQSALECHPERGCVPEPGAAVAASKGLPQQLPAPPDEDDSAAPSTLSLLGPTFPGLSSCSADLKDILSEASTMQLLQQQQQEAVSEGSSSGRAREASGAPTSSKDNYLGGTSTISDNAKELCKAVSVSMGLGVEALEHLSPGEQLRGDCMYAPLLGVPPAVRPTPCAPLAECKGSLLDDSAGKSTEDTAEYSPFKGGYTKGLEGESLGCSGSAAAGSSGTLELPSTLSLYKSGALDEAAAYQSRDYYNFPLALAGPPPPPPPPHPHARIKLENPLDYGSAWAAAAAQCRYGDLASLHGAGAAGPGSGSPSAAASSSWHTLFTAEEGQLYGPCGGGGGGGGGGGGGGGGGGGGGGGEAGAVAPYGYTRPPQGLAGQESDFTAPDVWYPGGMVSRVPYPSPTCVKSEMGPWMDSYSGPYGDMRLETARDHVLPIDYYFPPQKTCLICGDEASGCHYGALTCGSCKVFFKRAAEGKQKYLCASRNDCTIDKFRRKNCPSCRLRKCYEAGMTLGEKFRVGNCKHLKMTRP
The description is as above.

Several values for one entry are separate records, joined by “and”; a condition that tells them apart may be missing. Equal values may be shown once.

B1: AR pep‐PROTAC drug (designed peptide PROTAC) (peptide)
peptide: YLCSSNNNRERDKFRRGGSGGTSFEQFWAWLWP
notes: flexible linker; Free peptide in ITC and fluorescence polarisation; also called AR DBD PROTAC; AR DBD PROTAC drug; source: synthetic peptide (solid‐phase peptide synthesis, preparative HPLC)
As for B1, the midpoint of the response in assay [1], the EC50, lay at 1800 nM. Besides, the dissociation constant Kd is 12.2 nM in assay [2]; 1430 nM in the assay with MDMX; 49.6 nM and 49.5 nM in assay [3].
